Data taken from the supplement of paper PMC10126150.
± gives the standard deviation of the averaged measurements.

System: ATP
Assay: switch fluorescence ratio, 500 uM ATP over buffer (Cy3 cluster intensity, sum of 5 cycles each) (fold (ratio)); higher = stronger signal-on switching upon ATP binding; sequences stand for … in TCGTCGGCAGCGTCAGATGTGTATAAGAGACAGTTTTTTTTTTTTTTTTTTTTTTTTT…TC
Details: aptamer strand: ATP DNA aptamer (quencher-CACCTGGGGGAGTATTGCGGAGGAAGG + anchor), 100 nM annealed; ATP concentration: 500 uM
Outline: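 Switching-strand clusters labelled with Cy3 on a modified Illumina MiSeq flow-cell were annealed to 100 nM quencher-labelled ATP aptamer, imaged in selection buffer, and re-imaged after 15 min with 500 uM ATP at 22 °C. This was done over five cycles with NaOH stripping and re-annealing in between. The fluorescence ratio is summed target-cycle over summed buffer-cycle Cy3 intensity per cluster, averaged per switch-domain sequence, excluding clusters outside 100-1000 RFU.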
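Also: ATP exposure 15 min at 22 °C before imaging.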

Sequence | switch fluorescence ratio
AAGGCGCGGC | 0.9694 ± 0.0088
AAGGCGGCAT | 1 ± 0.044
AAGGCGGCGG | 0.991 ± 0.034
AAGGCGGGGT | 0.997 ± 0.033
AAGGCGGTCA | 1.01 ± 0.04
AAGGCGTCGG | 0.993 ± 0.026
AAGGCTGTAA | 0.97831 ± 0.0009
AAGGGAAAAA | 1.03 ± 0.092
AAGGGAAAGA | 1.02 ± 0.061
AAGGGAAGCG | 1.01 ± 0.039
AAGGGACTTG | 0.995 ± 0.018
AAGGGCAGGG | 1.03 ± 0.029
AAGGGCAGGT | 1.01 ± 0.03
AAGGGCCAGC | 0.9896 ± 0.0042
AAGGGCCGTG | 1.02 ± 0.04
AAGGGCCTTC | 1.025 ± 0.0071
AAGGGCGCTC | 0.975 ± 0.032
AAGGGCGGC | 1.03 ± 0.018
AAGGGCTACG | 0.983 ± 0.04
AAGGGCTAGA | 1 ± 0.016
AAGGGGAAAG | 0.998 ± 0.025
AAGGGGAACT | 0.9907 ± 0.0043
AAGGGGAGAG | 0.993 ± 0.018
AAGGGGCACT | 1.02 ± 0.047
AAGGGGCAGG | 1.04 ± 0.084

Sequence | switch fluorescence ratio
AAGGGGCCCT | 1.0195 ± 0.00095
AAGGGGCCGA | 0.994 ± 0.034
AAGGGGCCGC | 0.982 ± 0.026
AAGGGGGAAG | 0.971 ± 0.015
AAGGGGGAAT | 1.05 ± 0.031
AAGGGGGAGA | 0.994 ± 0.03
AAGGGGGCGT | 1 ± 0.026
AAGGGGGG | 0.994 ± 0.062
AAGGGGGGAA | 1.06 ± 0.21
AAGGGGGGGC | 0.998 ± 0.062
AAGGGGTGGA | 1.01 ± 0.05
AAGGGTGGTC | 0.957 ± 0.012
AAGGGTTAAG | 0.9975 ± 0.006
AAGGGTTGAG | 0.981 ± 0.046
AAGGGTTGTT | 1.01 ± 0.032
AAGGGTTTGA | 1.032 ± 0.0096
AAGGTACCGG | 1.01 ± 0.03
AAGGTACCGT | 1.05 ± 0.055
AAGGTAGGGC | 1.014 ± 0.008
AAGGTATATA | 0.9938 ± 0.0031
AAGGTATCTG | 1.03 ± 0.03
AAGGTATGC | 1.01 ± 0.048
AAGGTATGTT | 0.981 ± 0.021
AAGGTCAAGG | 1.015 ± 0.0056
AAGGTCATTT | 1 ± 0.034

Sequence | switch fluorescence ratio
AAGGTCCAGT | 1.13 ± 0.23
AAGGTCCGCT | 1.05 ± 0.02
AAGGTCTATT | 0.998 ± 0.06
AAGGTCTGAG | 1.02 ± 0.043
AAGGTCTGGT | 0.985 ± 0.038
AAGGTGAGGG | 1.03 ± 0.02
AAGGTGGGGG | 0.991 ± 0.033
AAGGTGTGGG | 1.01 ± 0.015
AAGGTGTTTG | 1.05 ± 0.04
AAGGTTAAGG | 0.993 ± 0.025
AAGGTTAATG | 1 ± 0.016
AAGGTTAGGG | 0.984 ± 0.029
AAGGTTATCT | 1.005 ± 0.0068
AAGGTTCGAT | 0.984 ± 0.049
AAGGTTGCGG | 1 ± 0.037
AAGGTTTGTA | 0.9899 ± 0.0068
AAGGTTTTTA | 0.993 ± 0.029
AAGTAACGGT | 1.02 ± 0.047
AAGTAAGTAG | 1.01 ± 0.021
AAGTACTATC | 1.26 ± 0.025
AAGTACTTGA | 1.12 ± 0.052
AAGTAGATTG | 1.003 ± 0.0081
AAGTAGGCGC | 0.9958 ± 0.008
AAGTATAGC | 1.02 ± 0.044
AAGTCATTTT | 1.026 ± 0.0017

Sequence | switch fluorescence ratio
AAGTCCAATG | 1.01 ± 0.023
AAGTCCGATA | 0.9941 ± 0.0038
AAGTCGTTCG | 0.989 ± 0.016
AAGTCTCTCC | 1.06 ± 0.018
AAGTCTGCAG | 1.002 ± 0.01
AAGTCTGTTA | 0.994 ± 0.032
AAGTCTGTTT | 1.03 ± 0.028
AAGTGAATGG | 0.9986 ± 0.0032
AAGTGACCTT | 1.135 ± 0.0039
AAGTGAGGGG | 0.998 ± 0.028
AAGTGCGATC | 1.04 ± 0.019
AAGTGGCTTT | 1 ± 0.014
AAGTGGGCGT | 1.01 ± 0.046
AAGTGGGGA | 0.986 ± 0.018
AAGTGGGGCT | 1.005 ± 0.0094
AAGTGGGGGA | 1.02 ± 0.015
AAGTGGGGTA | 1.03 ± 0.022
AAGTGGGTGT | 0.99 ± 0.059
AAGTGGGTTT | 1.02 ± 0.037
AAGTGTCTTG | 0.999 ± 0.05
AAGTGTTAAT | 0.9955 ± 0.0031
AAGTTACGT | 1.06 ± 0.025
AAGTTAGACA | 1.021 ± 0.0087
AAGTTAGTTA | 1.03 ± 0.02
AAGTTCAGTA | 0.9673 ± 0.0084

Sequence | switch fluorescence ratio
AAGTTCAGTG | 1.014 ± 0.0068
AAGTTCTGGA | 0.976 ± 0.07
AAGTTGGGGC | 0.989 ± 0.032
AAGTTGGTCT | 1.02 ± 0.018
AAGTTGGTTC | 0.98 ± 0.052
AAGTTGTATG | 0.9787 ± 0.0025
AAGTTGTTAT | 0.986 ± 0.045
AAGTTTAGCA | 1.01 ± 0.021
AAGTTTATTT | 0.973 ± 0.051
AAGTTTCGAG | 0.983 ± 0.017
AAGTTTCGGG | 0.987 ± 0.027
AAGTTTTCAG | 0.97 ± 0.021
AAGTTTTGGT | 0.964 ± 0.019
AATAAAAAGG | 0.991 ± 0.019
AATAAAAAGT | 0.982 ± 0.023
AATAAAAGAT | 1 ± 0.017
AATAAAATT | 1.03 ± 0.076
AATAAACGGG | 1.03 ± 0.015
AATAAAGAGT | 0.974 ± 0.015
AATAAAGGAT | 1 ± 0.017
AATAACAAAA | 0.995 ± 0.037
AATAACCAGT | 1.02 ± 0.016
AATAAGAGGG | 1.01 ± 0.026
AATAAGGAGA | 1.01 ± 0.019
AATAAGGGGA | 1.02 ± 0.077

Sequence | switch fluorescence ratio
AATAAGGTAT | 0.965 ± 0.014
AATAAGTTTT | 0.969 ± 0.037
AATAATGTTG | 0.998 ± 0.015
AATAATTGTG | 1.02 ± 0.028
AATACAGCAT | 1.03 ± 0.014
AATACCATCG | 1.05 ± 0.033
AATACGACGG | 1.14 ± 0.014
AATACGAGAG | 1.03 ± 0.019
AATACGAGTC | 1.09 ± 0.022
AATAGAAAAT | 0.97 ± 0.061
AATAGAATTA | 1 ± 0.018
AATAGAGTGG | 0.99 ± 0.024
AATAGCATGG | 1.03 ± 0.024
AATAGCTAGT | 0.99272 ± 0.00015
AATAGGACGG | 1.03 ± 0.022
AATAGGGCAG | 1.009 ± 0.0078
AATAGGGGTA | 0.987 ± 0.029
AATAGGGTG | 1.08 ± 0.07
AATAGGTAG | 0.976 ± 0.014
AATAGGTTAG | 1.001 ± 0.0075
AATAGTTACT | 1.0234 ± 0.00037
AATAGTTAGG | 1.02 ± 0.012
AATAGTTTAG | 0.9918 ± 0.0035
AATATAGCGT | 0.969 ± 0.021
AATATAGTTG | 1.02 ± 0.018

Sequence | switch fluorescence ratio
AATATGAGGG | 1.01 ± 0.042
AATATGTGTG | 0.97933 ± 0.00034
AATATTAGGC | 1.03 ± 0.03
AATATTCTGT | 0.9923 ± 0.0029
AATATTTAGT | 1 ± 0.024
AATATTTTCC | 1.04 ± 0.052
AATATTTTTG | 1 ± 0.019
AATCAAGTAG | 0.9821 ± 0.0086
AATCACGGTG | 1.05 ± 0.052
AATCAGCCTC | 1.01 ± 0.016
AATCAGCGGT | 1.02 ± 0.028
AATCATTCCG | 1.07 ± 0.041
AATCATTGTA | 1.01 ± 0.039
AATCCCGCCA | 1.19 ± 0.034
AATCCGGGGC | 2.35 ± 1.6
AATCCTAAGG | 1.02 ± 0.048
AATCCTATCA | 1.02 ± 0.014
AATCGCAACG | 1.02 ± 0.022
AATCGCTGGG | 0.988 ± 0.022
AATCGGGAA | 0.9868 ± 0.0041
AATCGGGTAT | 0.984 ± 0.027
AATCGGTCAC | 0.998 ± 0.025
AATCGGTCTG | 1.03 ± 0.02
AATCGGTGCG | 0.986 ± 0.049
AATCGTATCC | 1.01 ± 0.029

Sequence | switch fluorescence ratio
AATCGTCAGG | 1.01 ± 0.012
AATCTAATTG | 1.002 ± 0.0038
AATCTGCTCG | 0.9864 ± 0.002
AATCTGGGGC | 0.968 ± 0.011
AATCTGGTGT | 1.02 ± 0.054
AATCTTGAGG | 1.01 ± 0.028
AATCTTTATT | 1.008 ± 0.0018
AATGAAGGCA | 1.005 ± 0.0049
AATGAATGAG | 0.971 ± 0.022
AATGAATTGT | 1.02 ± 0.022
AATGAGTATA | 0.9915 ± 0.007
AATGCCAGGG | 1.02 ± 0.026
AATGCCTGGT | 0.984 ± 0.022
AATGCGGGGA | 1.03 ± 0.017
AATGCGGTAT | 1.01 ± 0.023
AATGCGTGTG | 1.12 ± 0.15
AATGCTGTTG | 0.991 ± 0.02
AATGCTTGTC | 0.952 ± 0.048
AATGCTTTGG | 1.007 ± 0.0095
AATGGAAGGG | 1.01 ± 0.013
AATGGAGATT | 0.985 ± 0.031
AATGGATGTT | 1.05 ± 0.12
AATGGCAGGA | 0.998 ± 0.016
AATGGCAGTC | 1.03 ± 0.05
AATGGCCTA | 1.03 ± 0.046
